Experimental data reported in publication PMC9246713.

Molecular target: OmpK36WT (wild type OmpK36 porin trimer of K. pneumoniae ATCC 43816) (Klebsiella pneumoniae)
Assay: cryo-EM structure; OmpK36-TraN sample 0.33 mg ml^-1 diluted 1:6 in buffer A (50 mM NaCl, 10 mM HEPES pH 7.0, 0.03% DDM); graphene oxide-coated grids; Titan Krios 300 keV; 2.6 Å

Row | Substance | occupancy (TraN molecules for each OmpK36 trimer) (molecule for each OmpK36 trimer) | stoichiometry N
1 | TraN from the plasmid pKpQIL (mature TraN, D28 to Q651) (natural protein) | < 1 | –
2 | OmpK36WT (wild type OmpK36 porin trimer of K. pneumoniae ATCC 43816) (natural protein) | – | 3
